From the DeepSol protein solubility set

Assay: soluble on expression in E. coli; label from the status in PepcDB or PDB records

Soluble on expression in E. coli, not soluble:
MGSDKIHHHHHHMTQSDFFSLDGISKRFGVVQALDNVSIAFRPGEVLALVGENGAGKSTMMRILEGVSGPDTGTVRHGSTPIVFGEPRDSHRAGIRVIHQEPEIVPNLTVAENIFVGELPRLAGVLLDWRKLEEQTDRVLATFGMQQDMRPRQLCGTLGPAQRQMIEIMRAIRAGGRLIAFDEPTSSLTDDEARRLFSVVRRLREKGTSIIYISHRLNEIIDLADRIVVLRDGRLVDDSPAAGASEQTIAKLMVGRNIDDLFTRETWRSGEQLLDVAGLTTDRVNDVSLRVRRGEVLGIAGLMGAGRSELAKAIVGYDRRIAGTIAMNGVPVLPNSPHAAIVAGIGFAPEDRKHEALLLFRSILDNAALCVPDKTSSFGFFNRRKAMEIVSPLAAKMSIKAPNLDEQVSKLSGGNQQKVVLARWLARQPMLLILDEPTRGIDIGAKAEIYRLIDELAASGIGIILISSEMPELIGLADRVLVMAGGRITAELARPDIDEATILKHAMPQSASSPGDYIQ, MGSDKIHHHHHHMTQSHDEPMQTMMWGGNAAFIEGLYESYLQDPSSVGAEWRSYFDGLRGGAQERVHSEVQQRFYELGQHRGPVTVQVTGGASGAQQAAGALVTAYRVYGHISARNNPLKLRGVPTVPELTPEFYGLSEADLSEQVQDSPFSGTLRDVIAQLQDTYCGAIGFEYNYLPANERAWFQERIEKGRGQGRYGLSQDERRRLMQKLNAAEGLELYLKNRYPGVKRFGLEGGESFIPLMDRIIQQAGGRYGVKEVVVGMAHRGRLNTLVNIFGKPSGTLFDEFDGKKKLSDDPDIAGDVKYHMGYSSDVRTPGGPMHLAMAFNPSHLEIVSPVVHGSVRARQDRRGDTERKQVLPITVHGDAAVSGQGVVMETLNFSRLRGFTTGGAIRIVINNQIGFTISDPRDSRSSRYCTDVAKIANAPVMHVNGDDPEAVAFCGDLALAYRQEFGKDVFIDLICFRRNGHNEGDEPRMTQPVMYREIDQHPGTRALYAAQLEKDGVLAAGEGDKLVNDFRDRLDRGETVVEEMENAEQSKLAVDWSGYTNTHWKDDEVATAVPREKLEALGLKLTQVPEGFRVHRTVERTVIKAREAMARGEQPLDWGMGEMLAYASLLDEGFGLRLDGQDSGRGTFVHRHAVLHNQDAVDPLSEEYMALAHLSPEQGRVEVIDSTLSEEAVLAFEYGYSTSEPKALVAWEAQFGDFANGAQAVVDQFLSAGESKWQRLSGLTMLLPHGYEGAGPEHSSARLERYLQLCAQKNMQVVVPSSAAQIFHLLRRQVLRPYRKPLIVMTPKSLLRNKHAMSPLSDLYDGVFHEVIGDAEVQNARRVVLSSGKLHWELTEAREKDKEGYAGTALVRLEQLYPFPAEQVKAELAKHPGAQVVWAQEEPENQGAWLMIWEDLEHCLQPGQTLTHASRPRSASTAVGYTSVHVREQAKVIADALGEPITRQDVDAQVPLTEEASAQG, MGSDKIHHHHHHMTRSAEPRVLQFCHGYDGPFLDCARQYASLFAGTPYKVTTVFLTGRSDPEVAARCASDEVLFLEYGSRDIRGLKLKAIRDLREIARSRDFRFCIAHRFKPIWIASLATRLPIVGVHHAFGDYQRLSRKVFAGLMSKRLSLLAVSDAVRDDIRRCLPKWPAERIETLYNRIDVAALQAEQVERLSARRQLRLPDEAWVVGNVGRLHPDKDQATLLRGFAAALPRLPQNSLLAILGSGRLEEQLKDLACELGIGERVLFLGQVEEARRYFKAFDAFALSSDHEPFGMVLLEAMVAGVPLIATACGGAREVVEGVGILFPLGDETALAEGLTHLAALDRRQREACARLMLERLETRFSDAAVRREFWRLPTIAGFASESAC, MGSDKIHHHHHHMTRSFYWVDHSTQTFAERDLSKTVVVLPIAAVEQHGPHLPVDVDAAINAEIIRRTVARLQPDTDVLFLPPMMVGKSDEHIAFPGTLAISGETLRHVWLDLARSVKRAGAAKLILFNSHGGQMALMDIVCRDIRIELGMLAVSCSWFRIAPVEDLFSRAEIDHGIHGGDIETSMMLAIAPERVAMDKAENFVPLTVAIEKSGSMLTAEGAVGFGWQAQDLHPAGVCGNASNATAQKGQIVLDRAADGLVSLIAATQAFDLSQLTSQTRFSNLCRARRIP, MGSDKIHHHHHHMTSKIDGLSVSSGLHRRYWNGMVADLWSVDCQSDAGGQYVSSDPRLFILLDAAGEDGADLSMAEGGGKRISGAMARAAHFIPAGLELSTAITGVKSLRHLDLHFDADILRHRLGEDAGLAALHQPRYLLDDPRLLALAELIAADVANPHPLHDLYGDGLVSALLIDVLNIRPTPTHQLPNRKRSKLAAWQLRRVCDFIEAHCLRTIRLEELAGLAGLSPTYFSHAFKASTGLSPHQWQMKARIETVKQRLRDPAVPLTVIAAETGFADAAHFARSFRRAVGLSPSEWRRVRLN
